Data as given in patent US20100260765A1 (AstraZeneca / MedImmune, published 2010).
Positions count from the first letter of the chain named.

B1: 22B8 (antibody, V domains shown)
VH: QLQLQESGPGLVKPSETLSLTCTVSGGSISSRYYYWGWVRQPPGKGLEWIGTIYYSGHTYYNPSLKTRVTISVDTSKNQFSLKLISVTAADTAVYYCATQQLVLYYFDFWGQGTLVTVSS
VL: EIVLTQSPGTLSLSPGERAALSCRASQSISSSYLAWYQQRPGQAPRLLIYGASSRATGIPDRFNGSGSGTDFTLTISRLEPEDFAVYYCQQFGSSITFGQGTRLEIK
notes: Fully human monoclonal antibody from a XenoMouse hybridoma (IgG2 or IgG4 strain), purified
B2: 27D10 (antibody, V domains shown)
VH: B1 VH with Y33S, Y34D, V39I, H58S, Y60F, T67S, I85S, T99R, F109Y
VL: not shown
notes: Purified fully human monoclonal antibody from XenoMouse hybridoma (IgG2 or IgG4 strains); also called MAb 27D10
B3: 33C3 (antibody, V domains shown)
VH: QVQLVESGGGLVKPGESLRLSCAASGFTFSDYYMSWIRQAPGKGLEWVSYISHGGSTIYYADSVKGRFTISRDNAKNSLYLQMNSLRVEDTAVYFCARDDFWSGYYFNWFDPWGQGALVTVSS
VL: DIQMTQYPLSLSASVGDRVTITCRASQSISSFLNWYHQKPGKAPKLLIYGTSSLQSGVPSRFSGSGSGTDFTLTISSLQPEDFATYYCQQTYSIPLTFGGGTNVEIK
notes: Purified fully human monoclonal antibody from XenoMouse hybridoma (IgG2 or IgG4 strains); also called MAb 33C3
B4: 33C3 (antibody, V domains shown)
VH: B3 VH
VL: B3 VL
notes: as for B1

How the values were obtained:
human KDR [1] = target: T1, human KDR (human, UniProt P35968 20-1356); experiment: cell-based or functional assay
soluble KDR Ig4-7 domain [2] = target: T2, soluble KDR Ig4-7 domain (human, UniProt P35968 328-764); experiment: ELISA, KDR Ig4-7 coat (1:1 diln.), antibody 1 ug/mL
T2 construct: domain: Ig4-7 domain; also called b-KDRIg4-7-myc-his; Ig4-7 domain of KDR; not shown: myc-his tag of the pSecTag construct
Procedure, shortened: (§1)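 Coat wells with the recombinant receptor protein, add purified antibody, then detect the bound antibody by ELISA. Isotype IgG1 and IgG4 are run alongside as controls.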

[3] = target: T3, mouse KDR (Flk-1)/Fc (Cat. #443-KD/CF, R&D Systems, Inc.) (mouse, UniProt P35918 20-762); experiment: ELISA, Flk-1 coat 5 ug/mL, antibody 1 ug/mL
T3 construct: Bought reagent; also called mouse VEGFR2; KDR mouse ortholog; not shown: Fc of the bought fusion protein
Procedure, shortened: as §1

cynomolgus KDR = target: T4, cynomolgus KDR (cynomolgus monkey, UniProt A0A2K5VE63 20-1356); experiment: FACS on Cyno KDR/293T transfectants, antibody 5 ug/mL
T4 construct: whole, on cells; also called Cyno KDR

human KDR [4] = target: T1, human KDR; experiment: cell-based or functional assay; remark: listed apart in the source
soluble KDR Ig4-7 domain [5] = target: T2, soluble KDR Ig4-7 domain; experiment: ELISA, KDR Ig4-7 coat (1:1 diln.), antibody 0.1 ug/mL
Procedure, shortened: as §1

[6] = target: T5, whole KDR-ECD (Cat. # 676490, Calbiochem) (human, UniProt P35968 20-764); experiment: ELISA, KDR-ECD coat 5 ug/mL, antibody 1 ug/mL
T5 construct: extracellular domain; Bought soluble protein; also called soluble KDR; VEGF Receptor 2 D1-7
Procedure, shortened: as §1

human KDR [7] = target: T1, human KDR; experiment: cell-based or functional assay; remark: listed apart in the source
[8] = target: T3, mouse KDR (Flk-1)/Fc (Cat. #443-KD/CF, …); experiment: ELISA, Flk-1 coat 5 ug/mL, antibody 0.1 ug/mL
Procedure, shortened: as §1

soluble KDR Ig4-7 domain [9] = target: T2, soluble KDR Ig4-7 domain; experiment: ELISA, KDR Ig4-7 coat (1:1 diln.), antibody 0.01 ug/mL
Procedure, shortened: as §1

human KDR [10] = target: T1, human KDR; experiment: FACS competition on 293T/human KDR transfectants; antibody 5 ug/mL first, then competitor VEGF165 50 ng/mL; bound VEGF165 detected
Experimental: (§2) Transfected cells were then seeded at 50,000 cells/well and incubated with 5 μg/mL of candidate antibody for one hour at 4° C. […] After washing, the cells were incubated with Cy5-conjugated rabbit anti-goat antibody plus 7AAD for 15 minutes at 4° C.

human KDR [11] = target: T1, human KDR; experiment: FACS titration of purified antibody on HUVEC cells (FACS Kd)
Experimental: The binding affinities of the purified antibodies for endogenously-expressed KDR in HUVEC cells was measured. HUVEC cells were seeded at 150,000 cells/well and incubated with titrations of purified antibody for 4 hours at 4° C. The cells were then washed and incubated with goat anti-human IgG-Fc-Cy5+5 μg/mL 7-Amino-Actinomycin (7AAD) for 30 minutes at 4° C. Bound KDR was detected using FACS analysis.

[12] = target: T3, mouse KDR (Flk-1)/Fc (Cat. #443-KD/CF, …); experiment: ELISA, Flk-1 coat 5 ug/mL, antibody 0.01 ug/mL
Procedure, shortened: as §1

human KDR [13] = target: T1, human KDR; experiment: FACS competition on 293T/human KDR transfectants; antibody 5 ug/mL first, then competitor VEGF165 50 ng/mL; inhibition of VEGF binding
Experimental: as §2

[14] = target: T5, whole KDR-ECD (Cat. # 676490, …); experiment: ELISA, KDR-ECD coat 5 ug/mL, antibody 0.1 ug/mL
Procedure, shortened: as §1

[15] = target: T5, whole KDR-ECD (Cat. # 676490, …); experiment: ELISA, KDR-ECD coat 5 ug/mL, antibody 0.01 ug/mL
Procedure, shortened: as §1

[16] = target: T6, KDR (antigen used as analyte in the Biacore assay) (UniProt P35968 20-764, limits assumed); experiment: SPR, Biacore 2000; antibody amine-coupled on CM4 chip, KDR as analyte; global 1:1 fit; 23 C
T6 construct: also called the antigen KDR
Experimental: Each purified anti-KDR antibody was immobilized on a CM4 sensor chip within a Biacore 2000 using standard amine coupling. Immobilization levels were kept between 250 and 350 RU. The concentration of KDR was determined by UV-VIS spectroscopy using a molar absorptivity at 280 nm of 110, 440 M⁻¹ cm⁻¹, which was calculated from the sequence of the protein using a method developed by Pace et al. (G. R. Grimsley and C. N. Pace (2003) in Current Protocols in Protein Science (John Wiley & Sons, Inc.), 3.1.1-3.1.9). The antigen KDR was diluted to a starting concentration of 52 nM and tested in a 3-fold dilution series in triplicate. The running buffer contained HBS-P with 0.1 mg/ml BSA and binding responses were collected at 23 degrees C. […] The response data were globally fit with a simple 1:1 interaction model. The number shown in parentheses is the standard error in the last significant figure.

human KDR on cells = human KDR on cells (human, UniProt P35968 20-1356); experiment: cell-based or functional assay
human KDR on cells, sequence (P35968 20-1356): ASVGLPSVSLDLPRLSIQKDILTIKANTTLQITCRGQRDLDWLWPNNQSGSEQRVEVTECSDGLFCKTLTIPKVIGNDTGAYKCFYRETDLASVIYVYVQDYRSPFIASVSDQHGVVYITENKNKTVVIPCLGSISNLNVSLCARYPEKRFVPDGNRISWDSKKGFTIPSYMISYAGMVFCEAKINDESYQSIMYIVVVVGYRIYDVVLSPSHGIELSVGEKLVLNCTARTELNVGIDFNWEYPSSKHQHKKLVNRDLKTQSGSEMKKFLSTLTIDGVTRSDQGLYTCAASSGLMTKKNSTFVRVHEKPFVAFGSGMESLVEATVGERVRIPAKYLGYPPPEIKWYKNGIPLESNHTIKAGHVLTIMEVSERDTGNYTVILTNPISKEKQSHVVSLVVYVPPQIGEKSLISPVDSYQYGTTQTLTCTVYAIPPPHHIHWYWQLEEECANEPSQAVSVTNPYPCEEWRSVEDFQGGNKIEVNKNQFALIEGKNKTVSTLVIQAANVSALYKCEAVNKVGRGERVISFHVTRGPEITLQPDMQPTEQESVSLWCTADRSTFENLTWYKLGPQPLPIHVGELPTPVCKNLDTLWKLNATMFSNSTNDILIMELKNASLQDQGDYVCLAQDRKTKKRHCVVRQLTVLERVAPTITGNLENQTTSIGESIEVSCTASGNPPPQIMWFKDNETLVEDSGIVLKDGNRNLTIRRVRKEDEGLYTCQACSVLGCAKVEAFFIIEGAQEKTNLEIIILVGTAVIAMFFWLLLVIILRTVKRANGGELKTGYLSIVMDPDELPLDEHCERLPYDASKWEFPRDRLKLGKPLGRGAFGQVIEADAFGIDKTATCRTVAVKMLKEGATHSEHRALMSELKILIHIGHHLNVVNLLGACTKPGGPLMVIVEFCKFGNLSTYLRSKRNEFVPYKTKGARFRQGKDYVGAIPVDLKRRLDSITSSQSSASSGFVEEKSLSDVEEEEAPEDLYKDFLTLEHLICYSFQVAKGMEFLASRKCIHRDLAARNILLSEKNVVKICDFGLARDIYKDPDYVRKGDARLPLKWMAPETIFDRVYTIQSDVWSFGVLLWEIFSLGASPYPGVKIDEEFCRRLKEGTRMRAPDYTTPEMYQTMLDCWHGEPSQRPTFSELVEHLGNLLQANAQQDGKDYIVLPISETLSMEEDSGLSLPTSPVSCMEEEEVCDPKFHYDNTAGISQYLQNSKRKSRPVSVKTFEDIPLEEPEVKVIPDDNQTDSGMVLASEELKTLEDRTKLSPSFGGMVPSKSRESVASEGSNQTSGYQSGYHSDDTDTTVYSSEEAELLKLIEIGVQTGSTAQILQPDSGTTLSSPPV

T2 sequence (P35968 328-764): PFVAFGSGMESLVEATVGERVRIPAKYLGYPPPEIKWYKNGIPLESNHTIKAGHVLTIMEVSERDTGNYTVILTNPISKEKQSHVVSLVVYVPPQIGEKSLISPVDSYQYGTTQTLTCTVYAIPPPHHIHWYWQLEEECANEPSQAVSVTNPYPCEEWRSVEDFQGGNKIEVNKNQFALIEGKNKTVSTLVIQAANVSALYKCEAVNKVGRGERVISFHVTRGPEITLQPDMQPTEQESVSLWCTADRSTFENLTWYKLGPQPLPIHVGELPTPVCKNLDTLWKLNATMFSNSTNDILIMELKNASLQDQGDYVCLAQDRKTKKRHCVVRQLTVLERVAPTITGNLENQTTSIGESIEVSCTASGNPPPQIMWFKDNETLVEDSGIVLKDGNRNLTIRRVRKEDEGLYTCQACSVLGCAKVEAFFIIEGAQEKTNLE
T1 sequence (P35968 20-1356): as the sequence (P35968 20-1356) above
T3 sequence (P35918 20-762 limits assumed): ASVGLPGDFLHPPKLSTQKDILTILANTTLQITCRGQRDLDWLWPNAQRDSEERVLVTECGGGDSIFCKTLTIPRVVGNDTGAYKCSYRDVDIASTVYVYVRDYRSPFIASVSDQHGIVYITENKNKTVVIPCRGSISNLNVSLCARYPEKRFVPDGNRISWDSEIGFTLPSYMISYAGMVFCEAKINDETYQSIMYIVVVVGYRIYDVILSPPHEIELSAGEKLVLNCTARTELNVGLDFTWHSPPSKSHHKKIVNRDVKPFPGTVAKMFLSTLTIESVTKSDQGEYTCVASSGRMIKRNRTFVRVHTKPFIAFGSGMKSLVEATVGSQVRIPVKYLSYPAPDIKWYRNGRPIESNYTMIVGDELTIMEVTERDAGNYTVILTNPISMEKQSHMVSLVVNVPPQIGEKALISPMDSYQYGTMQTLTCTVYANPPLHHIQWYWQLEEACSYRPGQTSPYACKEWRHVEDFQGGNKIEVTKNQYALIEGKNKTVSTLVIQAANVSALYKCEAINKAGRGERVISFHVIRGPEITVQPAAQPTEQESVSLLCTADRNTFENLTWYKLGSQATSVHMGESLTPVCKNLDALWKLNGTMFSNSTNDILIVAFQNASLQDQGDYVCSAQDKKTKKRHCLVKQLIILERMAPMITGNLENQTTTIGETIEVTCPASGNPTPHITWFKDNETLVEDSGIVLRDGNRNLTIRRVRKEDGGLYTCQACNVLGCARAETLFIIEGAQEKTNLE
T5 sequence (P35968 20-764): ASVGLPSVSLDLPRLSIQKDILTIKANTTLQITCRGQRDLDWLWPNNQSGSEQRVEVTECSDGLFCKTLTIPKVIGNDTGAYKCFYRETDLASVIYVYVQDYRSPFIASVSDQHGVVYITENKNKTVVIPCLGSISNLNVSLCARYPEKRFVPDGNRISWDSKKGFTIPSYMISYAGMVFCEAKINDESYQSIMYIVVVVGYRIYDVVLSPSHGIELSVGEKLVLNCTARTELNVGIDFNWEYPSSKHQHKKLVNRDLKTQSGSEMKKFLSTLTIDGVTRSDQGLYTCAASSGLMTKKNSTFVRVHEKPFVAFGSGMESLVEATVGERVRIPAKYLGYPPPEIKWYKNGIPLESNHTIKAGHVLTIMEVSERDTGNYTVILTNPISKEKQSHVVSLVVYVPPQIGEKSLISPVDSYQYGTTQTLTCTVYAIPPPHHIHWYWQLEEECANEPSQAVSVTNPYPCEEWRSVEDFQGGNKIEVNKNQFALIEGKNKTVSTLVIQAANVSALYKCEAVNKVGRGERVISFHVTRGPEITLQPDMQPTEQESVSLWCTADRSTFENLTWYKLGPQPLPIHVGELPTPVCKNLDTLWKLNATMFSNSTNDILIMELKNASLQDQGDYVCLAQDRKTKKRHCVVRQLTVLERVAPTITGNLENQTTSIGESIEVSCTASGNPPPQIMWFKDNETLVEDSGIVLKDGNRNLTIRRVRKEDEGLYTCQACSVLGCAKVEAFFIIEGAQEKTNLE
T6 sequence (P35968 20-764 limits assumed): as the sequence (P35968 20-764) above
T4 sequence (A0A2K5VE63 entry or part of it): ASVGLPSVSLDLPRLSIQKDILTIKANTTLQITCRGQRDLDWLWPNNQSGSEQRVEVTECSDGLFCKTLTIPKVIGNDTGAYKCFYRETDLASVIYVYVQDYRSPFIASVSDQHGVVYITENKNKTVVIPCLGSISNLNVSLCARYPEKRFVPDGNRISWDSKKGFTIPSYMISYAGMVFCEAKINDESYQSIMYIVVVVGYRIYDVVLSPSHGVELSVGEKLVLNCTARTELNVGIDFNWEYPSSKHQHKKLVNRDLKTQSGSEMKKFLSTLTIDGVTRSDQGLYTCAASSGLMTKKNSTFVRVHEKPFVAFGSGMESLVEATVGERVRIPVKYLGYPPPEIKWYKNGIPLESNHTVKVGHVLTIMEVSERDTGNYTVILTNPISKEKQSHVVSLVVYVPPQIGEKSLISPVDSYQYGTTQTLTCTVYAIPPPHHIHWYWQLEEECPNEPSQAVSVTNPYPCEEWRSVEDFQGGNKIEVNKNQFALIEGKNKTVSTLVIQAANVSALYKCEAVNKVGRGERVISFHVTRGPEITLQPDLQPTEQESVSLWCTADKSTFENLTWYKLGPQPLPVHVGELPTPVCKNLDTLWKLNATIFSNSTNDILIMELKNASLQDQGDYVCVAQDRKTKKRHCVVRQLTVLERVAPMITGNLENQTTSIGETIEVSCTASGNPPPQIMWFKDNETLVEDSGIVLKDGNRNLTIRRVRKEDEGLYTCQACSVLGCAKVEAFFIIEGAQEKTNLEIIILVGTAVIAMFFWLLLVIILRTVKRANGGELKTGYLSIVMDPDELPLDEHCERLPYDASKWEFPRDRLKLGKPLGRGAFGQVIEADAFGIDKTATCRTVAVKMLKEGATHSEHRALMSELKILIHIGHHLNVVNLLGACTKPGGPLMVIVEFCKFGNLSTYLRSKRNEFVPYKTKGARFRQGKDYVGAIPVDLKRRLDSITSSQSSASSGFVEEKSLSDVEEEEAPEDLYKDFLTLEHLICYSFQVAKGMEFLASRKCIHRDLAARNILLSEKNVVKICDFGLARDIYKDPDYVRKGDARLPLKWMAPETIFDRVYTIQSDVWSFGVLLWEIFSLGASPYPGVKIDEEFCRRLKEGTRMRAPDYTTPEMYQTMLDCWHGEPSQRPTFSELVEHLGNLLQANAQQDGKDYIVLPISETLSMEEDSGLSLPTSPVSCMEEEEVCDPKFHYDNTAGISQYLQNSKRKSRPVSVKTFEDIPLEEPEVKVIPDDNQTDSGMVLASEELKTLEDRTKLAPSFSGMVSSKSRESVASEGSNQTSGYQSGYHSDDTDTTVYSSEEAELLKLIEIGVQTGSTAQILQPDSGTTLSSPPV

| Binder | 6-keto Prostaglandin F1α release, EC50 (nM), Average (human KDR [1]) | 6-keto Prostaglandin F1α release, EC50 (nM), N = 1 (human KDR [1]) | 6-keto Prostaglandin F1α release, EC50 (nM), N = 2 (human KDR [1]) | 6-keto Prostaglandin F1α release, Maximum Inhibition (% Inhibition), Average (human KDR [1]) | 6-keto Prostaglandin F1α release, Maximum Inhibition (% Inhibition), N = 1 (200 nM) (human KDR [1]) | 6-keto Prostaglandin F1α release, Maximum Inhibition (% Inhibition), N = 2 (333 nM) (human KDR [1]) | ELISA reading (soluble KDR Ig4-7 domain [2]) | ELISA reading [3] | FACS Geometric Mean Fluorescence (cynomolgus KDR) | HUVEC survival, Maximum Inhibition at 50 nM (% Inhibition), Average (human KDR [4]) | HUVEC survival, Maximum Inhibition at 50 nM (% Inhibition), N = 1 (human KDR [4]) | HUVEC survival, Maximum Inhibition at 50 nM (% Inhibition), N = 2 (human KDR [4]) | ELISA reading (soluble KDR Ig4-7 domain [5]) | ELISA reading [6] | KDR tyrosine phosphorylation in HUVEC, EC50 (nM), Average (human KDR [7]) | KDR tyrosine phosphorylation in HUVEC, EC50 (nM), N = 1 (human KDR [7]) | KDR tyrosine phosphorylation in HUVEC, EC50 (nM), N = 2 (human KDR [7]) | KDR tyrosine phosphorylation in HUVEC, Maximum Inhibition at 100 nM (% Inhibition), Average (human KDR [7]) | KDR tyrosine phosphorylation in HUVEC, Maximum Inhibition at 100 nM (% Inhibition), N = 1 (human KDR [7]) | KDR tyrosine phosphorylation in HUVEC, Maximum Inhibition at 100 nM (% Inhibition), N = 2 (human KDR [7]) | also measured |
| --- | --- | --- | --- | --- | --- | --- | --- | --- | --- | --- | --- | --- | --- | --- | --- | --- | --- | --- | --- | --- | --- |
| B1 | 5.3 nM | 5.1 nM | 5.6 nM | 70% | 63% | 76% | 0.08 | 3.21 | 103 | 87% | 80% | 95% | 0.078 | 1.91 | 3.1 nM | 2.7 nM | 3.4 nM | 77% | 75% | 79% | ELISA reading [8]: 2.94; ELISA reading (soluble KDR Ig4-7 domain [9]): 0.074; FACS Geometric Mean Fluorescence (bound VEGF165) (human KDR [10]): 120; Kd (human KDR [11]): 1.8 nM; ELISA reading [12]: 1.2; % Inhibition (human KDR [13]): 7%; ELISA reading [14]: 0.089; ELISA reading [15]: 0.075 |
| B2 | – | – | – | – | – | – | – | – | – | – | – | – | – | – | – | – | – | – | – | – | Kd [16]: 4.91 nM; koff [16]: 0.000254 s⁻¹; kon [16]: 51800 M⁻¹ s⁻¹; % Inhibition (Average) of VEGF-C-mediated KDR activity, antibody 1 nM (human KDR on cells): 51%; % Inhibition (Average) of VEGF-C-mediated KDR activity, antibody 10 nM (human KDR on cells): 76%; % Inhibition (Average) of VEGF-C-mediated KDR activity, antibody 100 nM (human KDR on cells): 80%; % Inhibition (N = 1) of VEGF-C-mediated KDR activity, antibody 1 nM (human KDR on cells): 52%; % Inhibition (N = 1) of VEGF-C-mediated KDR activity, antibody 10 nM (human KDR on cells): 73%; % Inhibition (N = 1) of VEGF-C-mediated KDR activity, antibody 100 nM (human KDR on cells): 76%; % Inhibition (N = 2) of VEGF-C-mediated KDR activity, antibody 1 nM (human KDR on cells): 50%; % Inhibition (N = 2) of VEGF-C-mediated KDR activity, antibody 10 nM (human KDR on cells): 79%; % Inhibition (N = 2) of VEGF-C-mediated KDR activity, antibody 100 nM (human KDR on cells): 84% |
| B3 | – | – | – | – | – | – | – | – | – | – | – | – | – | – | – | – | – | – | – | – | Kd [16]: 0.91 nM; koff [16]: 9.3e-05 s⁻¹; kon [16]: 102000 M⁻¹ s⁻¹; % Inhibition (Average) of VEGF-C-mediated KDR activity, antibody 1 nM (human KDR on cells): 66%; % Inhibition (Average) of VEGF-C-mediated KDR activity, antibody 10 nM (human KDR on cells): 88%; % Inhibition (Average) of VEGF-C-mediated KDR activity, antibody 100 nM (human KDR on cells): 85%; % Inhibition (N = 1) of VEGF-C-mediated KDR activity, antibody 1 nM (human KDR on cells): 71%; % Inhibition (N = 1) of VEGF-C-mediated KDR activity, antibody 10 nM (human KDR on cells): 87%; % Inhibition (N = 1) of VEGF-C-mediated KDR activity, antibody 100 nM (human KDR on cells): 84%; % Inhibition (N = 2) of VEGF-C-mediated KDR activity, antibody 1 nM (human KDR on cells): 61%; % Inhibition (N = 2) of VEGF-C-mediated KDR activity, antibody 10 nM (human KDR on cells): 89%; % Inhibition (N = 2) of VEGF-C-mediated KDR activity, antibody 100 nM (human KDR on cells): 86% |
| B4 | 3.9 nM | 3.5 nM | 4.4 nM | 85% | 76% | 94% | 0.094 | 3.48 | 108 | 101% | 106% | 95% | 0.088 | 1.11 | 1.2 nM | 1.2 nM | 1.1 nM | 85% | 83% | 86% | ELISA reading [8]: 3.04; ELISA reading (soluble KDR Ig4-7 domain [9]): 0.073; FACS Geometric Mean Fluorescence (bound VEGF165) (human KDR [10]): 126; Kd (human KDR [11]): 1 nM; ELISA reading [12]: 1.25; % Inhibition (human KDR [13]): 2%; ELISA reading [14]: 0.153; ELISA reading [15]: 0.09 |
